This note sets out measurements from a protein production outcome set (Wang et al. 2014).

The series is described as follows: label from the status in PepcDB records.
For “MNEPLSSLELLPEEEGGANLTYFAFAAPTASAPDLPAVLPGPLPDVLSGRYRLERMLGAGGMGTVYRARDLLHEQFGDPAPLVALKLLNESVAESPDASALLYSEFALTRRLRHPNVVRLFTFDVDTACQRAYIVMELMPGLPLDRLLCERPEGLPWSELSAIARPLLDVLAYVHEQGVLHGDLKPSNVMLGEEGVRLFDFGLGQAQAGILDGLPQLSRGRIDAWTPGYAAPELLEGAPLSPAADLYALACVLYELADGRHPFRRLPSNQAREQGLERQLRAPRHLPRRCWPALRTALSLDPERRCIGVRELQEALGARRSWLAGVLAR”, the protein production result was “failed”.

For “MNEQPNNENITQSASRDLQIIEDDAFSYEGYQVVRGEFFAHTYEPSFTFNANKVSVNTACIKKLPQTDFVQILVNPDEKKLAVRPCQEDEKDSFRWCSATKKRSPRQITCRIFFAKVISLMEWNPSYRYKLLGKLIRSDNELLFVFDLTTPEIYVRAEKEDGKIKTSRTPTYPAEWQNQFGVPVEEHQSNLQINMFDGYAVFGILEHHHHHH”, the protein production result was “not failed”. As to “MNETEFYAYHIVTRKKMHIGQMIPFNKNQHNTLYHFFFEREQLNANGEDGIQILNNHYKNDELHINNENAKVVISYMDQTIRAARETIVEMVRLQEFPEYPSRLSCLYAAKSYEDALKWKALFDSYNREVLQIVKLRVIGSSFEGDGNLLPKEDGIPFSQKIEQARKYWKGNIRNELPELLINGEIEVVEIIDDFSSIHI”, the protein production entry is “not failed”.

As to “MNETINYDSLLILSVVAFFTPFLVSRLKRVNIPYQVGEIFIGILLGKSFLNIIKPDIWILFLSNLGLAYLMFLSGLAIDFDELKPKEGELLKDSKLFTSIKMFIVSIITAIILSFTLKFAGISEGYIFFALLFTAAAPGLLVPILKTKHIINSSYGQTLLVFGIITQLVSLIGVTFVASVAVNGITLKSFTFLIIFAVAIVVYFLSKIIFKVHDFSTIAFKNLHLSVRGAFVLVLVLVAVAEKVDSEIILGSFLAGMVFSLIVGKAKEEISHQLDVVGYGFLIPIFFIMVGVNVDLKAVVENPQSIAKIPLFILIFFLVKFIPSLLLKKKYGKRNSLAASMLLTAQLSLVIVGSQMALNLGYITAADYSAFVVTTVITCIFFPILFEKLITLNGDTNDTVEEDEKIIIREVLVSSQWYIGKALKDCKLPTGCRIFSMVRDDHEFMPNANTILEENDLVILAGVKHDVNETLNMLSTCDLTLPEE”, the protein production result is recorded as “failed”. As for “MNEVKAVWIRQWFPGLYQFKDYQRGWLTDDVRAAFSVVAVALPVAIAYAQLTGVPAIVGLYSCVLPMLVYALMGTSRQLIVGPDAATCAVIAAVVTPLAAGDTTKHWQLVMTMTAMTGFWCILASRLKLGIFADFLSRPILLGLLNGVALTIIVGQFAKVLGLKYEKRYLLERIVEAPELLYSLHWQTLGLSALTLAIYLVIKRWQPRWPAAMFAIMVAALLVWALNLESVGVQVVGVIQGGLPEFQAPAFDLGISRELVMPALNLAMVSFVSMMLTARSFAAKNGYDIDADKEFRALGVANVAAAFSQGFAISGADSRTAVNDANGGKSQLVSVIAALFIALVAVFAYQPLQFIPVAALGVVLIIASLSLLDLKGVWNLRKRDKDAFYLALITFIAVLVIGVIPGITLAVLLGLFQFLKLVMRPTDQMMGLDEEGTLRTLDGSEKAKPIPGMVIFRFNSPLTYFNAPYFKRRILDQTEREGAQVGCVIIDAVASFTHLDLSVMAMLADLHGILKKRGIRLILAGRKRSLRHWCDLTGINTAEGGIVLRADMYLAIKLSGCYLSAMEEGHVPVVQKEPDISVLLKPTTTEVA”, the protein production entry is “failed”. As for “MNFDRTFLTFLGVIMLVHLHIFFAFLSLALLVIRGAMQLNGKNWRSIKLLKILPHLSDTLLIVSGVVILYLFAFGIEWWLVAKFALLILYIVFAAKFFSKKVSQPKSIFFWLACVSFIGAMLIAYLK”, the entry is “failed”.

As to “MNFELSSPFSPTGDQPEAIAALSDGIKSGVPFQTLLGVTGSGKTFTIANVIKEVRKPTLILSHNKTLAAQLYSEFKAFFPNNAVEYFVSYYDYYQPEAYLPTTDTYIEKDLQINDEIDKLRLRATASLLSGRKDVIVVSSVSCLYGMADPTAFAEKVVHLEKGMRIDRDKLLRRFVDALYVNNKIEFNRGCFRVNGDTVDIFPAIETFDGAAYRIEFWDDEVDRISSFDPQTGQEIDEQDELNIYPTNLFVTTQERINTAIGQIDVDLGTQVNFLREIGKPYEAKRLYERVTFDLEMIRELGHCSGIENYSRYFDGRQAGERPFCLLDYFPKDFLLVVDESHVTIPQIRAMYGGDYSRKKNLVDYGFRLPAAMDNRPLTFDEFESLTPLAIYVSATPADYELEKSEGIVVDQVIRPTGLLDPVIEVRPTLNQIDDLMEEITQRAAVDERVLVTTLTKRMAEELTAYLTRMGIRCNYIHSDVDTLERIQIMDDLRKGLFDVLIGVNLLREGLDLPEVSLVAILDADKEGFLRSHRSLTQTAGRAARNVNGKVIFYADKITDSMRLTMDETARRREKQLAYNEKHGITPKQVIKNSVSLVAEKQQPVTGEPYAYVEPEPSLVADPVVQYMNRKQLEKAIERTKKQMMEAAKKLDFIEAAQFRDELVKLEDLLVTKKD”, the protein production result was “failed”. The entry for “MNFGTQIKMIRKENQLTQEQFGNQLNISRQTVSTWENNRYLPDIEMLVEIAKTFNLSLDDLILGNSVVKDKLVNDTKFVKRIRLSILSMIFILIAIVSALLFTSLPSHVSQDGVLQEPWFLVILAFFSLLTGLIIGMVNLVLIFINYYKYARRRK” is “failed”. As for “MNFKLNNTLSNEINTLIIGIPEHLNQLERISFNHIDITESLERLKHQHIIGSKVGKIYTTAFDVQDQTYRLITVGLGNLKTRSYQDMLKIWGHLFQYIKSEHIEDTYLLMDSFISKYDQLSDVLMACGIQSERATYEFDHYKSSKKAPFKTNLNLISESLIELDFIHEGISIGQSINLARDFSNMPPNVLTPQTFAEDIVNHFKNTKVKVDVKDYDTLVSEGFGLLQAVGKGSKHKPRLVTITYNGKDKDEAPIALVGKGITYDSGGYSIKTKNGMATMKFDMCGAANVVGIIEAASRLQLPVNIVGVLACAENMINEASMKPDDVFTALSGETVEVMNTDAEGRLVLADAVFYANQYQPSVIMDFATLTGAAIVALGDDKAAAFESNSKVILNDILQISSEVDEMVFELPITATERASIKHSDIADLVNHTNGQGKALFAASFVTHFSGQTPHIHFDIAGPATTNKASYNGPKGPTGFMIPTIVQWLKQQ”, the protein production result is given as “not failed”. As for “MNGDDDAKRSGKRLPDQPAKTQRTKGPVSFPSTVSLASLCEEGATASSNLDLLASCSSVQGSEDCDCEGHQPESERRLKRPRQAPWAAEPANQRRPPFDHGNSESIPPAGVQSQGTSASNGTDSSERKSTEATWSRQSVDCSTAEKLAGNLCANQVSAERSGQFYTKVNELLHDLHKERVSRQCRSPHES”, the entry is “failed”; as for “MNGDFYVDTTCIDCDTCRWMTPEVFHRVDEMSAVYHQPTNETERLAALQALLSCPTSSIGTVEKLEHHHHHH”, “failed”; as for “MNGDRTGLGSTRLGRIAIAGGKQLLGKINSARKNFPMKIFLLLLGFYTANALATILGQTGDWDVLVAGIVVAAIEGIGMLMYKKPSSSMFSGKLQSFVVFMNFWKAGVCLGLFVDAFKLGS”, “failed”. The entry for “MNGRVDYLVTEEEINLTRGPSGLGFNIVGGTDQQYVSNDSGIYVSRIKENGAAALDGRLQEGDKILSVNGQDLKNLLHQDAVDLFRNAGYAVSLRVQHRLQVQNGPI” is “not failed”; for “MNGTELRETLEDLIKEVVQASREALDTQGELNERNEAALRTLEAQWRQRLIEELHEQGSLRVVLCRTDLLVPGSGATGTTTTNRTDPLRYVYETLRQRDPRERRRSLPPERSSQSSELEDTGTDSGEALSSGDDDDEISQVAGQPEPETANYVLSQYERVLAPSTNKQRIWRVFLRDAMVHINGQDLLLNQLQCQFDW” it is “not failed”. The entry for “MNGVFAINFFVMALMLALYISESFGAIILLFFYKDGSKKVTPYVVPIWELTGTFIAFWVVTSDFAYPSILVPAAFIYAVPLLILLIAFIGRNAFIIFGEFIKKGFIDEKAMYKIFSIFECIFCLVFVIFASSVVTGGGVILSKLAFNVGKWATTPGDVLFVVGTVIFIFGLSFIFYGLEKYKLHSIVLTYIGIILAVVAFVQIHLSISTVPLSPVLAIPILIGILAPILFYIDSTRKIVENKIFFLALLVISVYPFYSLVYPKFFGGTLPVSAFLTNSPMATAYFYITLGGGILLIAMLAYMVYVANGFNKMVAEKA” is “failed”; for “MNHASDLILIGSTLLLALAAHAVGQKVHVPRVTLLLLLGALAGPDLLDLLPDNADQSFSLITQLTLAMVGFLLGERMSARDLRQGKEALIVSLAVTLLTAAAVILAVWAVTGNLPAALLLGGIATATAPAATLDVLREAGANGPLTRLVFQVVAIDDAWGAILFSVLLVAAGLLLGNGDLSGPTAMLHGLWEVAGSVLLGMVLGFPMAWLTGRLRPGEPMLLESAGFVFVAAGLASWFGLSYLLTCMTLGIVVANRARHHVRPFRSIEGISEPFLALFFFMAGYQLDWLALPTLGALGLAYVLARIGGRLAGGYLGGLLAGSAPETRQRIGACLMPQAGVALGLALVATERLPELGYILPLVIGATVVFELIGPPMTLLQLRKAGETGQGYQEEPDE” it is “failed”; for “MNHPIVGLIAAVVLAIGVVELHLWLPAIQSVSPLLISIGVGILVSHILPARCKEPLAPGLNIAKGSILRVAIVLYGFNITLQALSQVGIYGLFSAVTMVSVILFVGIWAGTKLFKLDKEQAILVAVGSAICGAAAVAAMEPIIKAKPHKVITAISTVVVFGTLSMLLMPLVFQFFDINEAQYGLWVGVSVHEVAQVVVAGDSVSSNAAHMAVLEKMLRVVLLVPVLLTFAVWMRQKSKGSDKESGDNKVSVPWFAFLFIGAIIINSLNWIPDDVTTAFTAAATYLLCIAMTALGMLTHISVIKQGGAKAFALAALLFVSLFITGYLLAQFA” it is “failed”.

Turning to “MNHPYRWVIVAAGGVLGCVAAGAMFSLPVLIRPMSQDTGWSVTGISTAMTIGFLAMAAASMVWGNLSDRFGPRPVVLTGSVVLAASLALGSRATSLIEFQLLFGALVGAATAAVFAPMMACVTGWFDTGRGLAVSLVSAGMGMAPLTMAPLAAWLVTIHDWRGAMLIISAITAALMIPAALLVRRPPALEPGGAEGAWADAQDDMTLRQAVRSPQFVTLLLANFFCCATHSGPIFHTVSYAVTCGIPMIAATSIYSVEGLSGMFGRLGFGLAGDRFGAQRVLVIGLLAQAFGVLAYAFVGGLGGFYAVAVAVGFIYAGTMPLYAVIIRENFPLRMMGTIVGGTAMAGSLGMSTGPVLGGLIYDAYDSYAPMYVASCGMGLAAMLILATFRPFPQRRGELAVA”, the protein production entry is on record as “failed”. In the case of “MNHRHYGNFMAALSFVIWGLLPVYYRFLHNAAMDELLAWRIIGSVPVGILIVYAVTRHWPNWSQVWRDKKSLWYTFVASSLMCISWSAFTWALTHHRVIDASLGFFIGPLVSVALGVFVLGDKLSKGQLIAILLATCGVLYQVFQYGQLPFVALTMGLFFALYGLYKKKINYDWSTTLFIEALVLAPFALGYLLFKQWTTGELASSVDTTTLLLYFGSAPITILPLIFYSIAIRITNLSTVGLMQYIEPSLQFILAVVFFGELFDDVKAVTFAFIWVGLLLTIFEGVAKGIKRKKLANHSV”, the protein production result was “failed”.

For “MNHSNLTILSVCSNFVIVVLKLIVGFFTGSVAVISEGIHSSMDLFASIITFFSIRISNQPADEDHPYGHGKAENIAGTIETLLIFVAGIWIIVESVNKLVNPHEIRFPALGIMVMLFGAIVNIIVSRIIKKAADEANSVAMKSNALHLYTDVFTSLGIALSLFLVYITGWLWLDPVIAILTAFYIMYEAYKLLKESFPPLMDKRLSADEEEAIKQIILAHKTRFIEFHDFRSRRAGAEEYIDFHLVVSSSMTIESAHSLCDEIEAEIMNFYAKAEVLIHLEPEEERVLTRI”, the protein production entry is recorded as “failed”.
